Reference: article PMC7367873, “Dissecting the sequence determinants for dephosphorylation by the catalytic subunits of phosphatases PP1 and PP2A” (Nature Communications, 2020)

Assays:
[1] = system: GFP-14-3-3β; experiment: GFP-14-3-3β co-IP with LC-MS/MS, untreated GFP-14-3-3β versus GFP control (14-3-3 interactome); assay type: binding, human; details: 3 replicates each
[2] = system: GFP-14-3-3β and its binding proteins; experiment: GFP-14-3-3β co-IP with LC-MS/MS label-free quantification, untreated versus PP1c-treated; design: species or system human; details: 3 replicates each
[3] = untreated vs GFP, LFQ intensities
[4] = PP1 vs untreated, LFQ intensities

| Molecule | Difference (log2), untreated vs GFP ([1]; log2 difference, pairwise comparison untreated vs GFP, label-free quantification) | Difference (log2), PP1 vs untreated ([2]; log2 difference, pairwise comparison PP1 vs untreated, label-free quantification) | Difference (log2), untreated vs GFP [1, 3] [log2] | Difference (log2), PP1 vs untreated [2, 4] [log2] |
| --- | --- | --- | --- | --- |
| BAG2 (protein, UniProt O95816 2-211, looked up) BAG family molecular …: AQAKINAKANEGRFCRSSSMADRSSRLLESLDQLELRVEALREAATAVEQEKEILLEMIHSIQNSQDMRQISDGEREELNLTANRLMGRTLTVEVSVETIRNPQQQESLKHATRIIDEVVNKFLDDLGNAKSHLMSLYSACSSEVPHGPVDQKFQSIVIGCALEDQKKIKRRLETLLRNIENSDKAIKLLEHSKGAGSKTLQQNAESRFN | -1.564 | 2.1096 |  |  |
| ERC1 (protein, UniProt Q8IUD2 1-1116, looked up) ELKS/Rab6-interacting/CAST …: MYGSARSVGKVEPSSQSPGRSPRLPRSPRLGHRRTNSTGGSSGSSVGGGSGKTLSMENIQSLNAAYATSGPMYLSDHENVGSETPKSTMTLGRSGGRLPYGVRMTAMGSSPNIASSGVASDTIAFGEHHLPPVSMASTVPHSLRQARDNTIMDLQTQLKEVLRENDLLRKDVEVKESKLSSSMNSIKTFWSPELKKERALRKDEASKITIWKEQYRVVQEENQHMQMTIQALQDELRIQRDLNQLFQQDSSSRTGEPCVAELTEENFQRLHAEHERQAKELFLLRKTLEEMELRIETQKQTLNARDESIKKLLEMLQSKGLSAKATEEDHERTRRLAEAEMHVHHLESLLEQKEKENSMLREEMHRRFENAPDSAKTKALQTVIEMKDSKISSMERGLRDLEEEIQMLKSNGALSTEEREEEMKQMEVYRSHSKFMKNKVEQLKEELSSKEAQWEELKKKAAGLQAEIGQVKQELSRKDTELLALQTKLETLTNQFSDSKQHIEVLKESLTAKEQRAAILQTEVDALRLRLEEKETMLNKKTKQIQDMAEEKGTQAGEIHDLKDMLDVKERKVNVLQKKIENLQEQLRDKEKQMSSLKERVKSLQADTTNTDTALTTLEEALAEKERTIERLKEQRDRDEREKQEEIDNYKKDLKDLKEKVSLLQGDLSEKEASLLDLKEHASSLASSGLKKDSRLKTLEIALEQKKEECLKMESQLKKAHEAALEARASPEMSDRIQHLEREITRYKDESSKAQAEVDRLLEILKEVENEKNDKDKKIAELERQVKDQNKKVANLKHKEQVEKKKSAQMLEEARRREDNLNDSSQQLQDSLRKKDDRIEELEEALRESVQITAEREMVLAQEESARTNAEKQVEELLMAMEKVKQELESMKAKLSSTQQSLAEKETHLTNLRAERRKHLEEVLEMKQEALLAAISEKDANIALLELSSSKKKTQEEVAALKREKDRLVQQLKQQTQNRMKLMADNYEDDHFKSSHSNQTNHKPSPDQIIQPLLELDQNRSKLKLYIGHLTTLCHDRDPLILRGLTPPASYNLDDDQAAWENELQKMTRGQLQDELEKGERDNAELQEFANAILQQIADHCPDILEQVVNALEESS |  |  | 2.543 | 0.3326 |
| SRP14 (protein, UniProt P37108 2-136, looked up) Signal recognition particle …: VLLESEQFLTELTRLFQKCRTSGSVYITLKKYDGRTKPIPKKGTVEGFEPADNKCLLRATDGKKKISTVVSSKEVNKFQMAYSNLLRANMDGLKKRDKKNKTKKTKAAAAAAAAAPAAAATAPTTAATTAATAAQ |  |  | 1.473 | 0.3437 |
| BSG (protein, UniProt P35613 22-385, looked up) Basigin: AAGFVQAPLSQQRWVGGSVELHCEAVGSPVPEIQWWFEGQGPNDTCSQLWDGARLDRVHIHATYHQHAASTISIDTLVEEDTGTYECRASNDPDRNHLTRAPRVKWVRAQAVVLVLEPGTVFTTVEDLGSKILLTCSLNDSATEVTGHRWLKGGVVLKEDALPGQKTEFKVDSDDQWGEYSCVFLPEPMGTANIQLHGPPRVKAVKSSEHINEGETAMLVCKSESVPPVTDWAWYKITDSEDKALMNGSESRFFVSSSQGRSELHIENLNMEADPGQYRCNGTSSKGSDQAIITLRVRSHLAALWPFLGIVAEVLVLVTIIFIYEKRRKPEDVLDDDDAGSAPLKSSGQHQNDKGKNVRQRNSS |  |  | 0.07198 | 0.3522 |
| NFX1 (protein, UniProt Q12986 1-1120, looked up) Transcriptional repressor …: MAEAPPVSGTFKFNTDAAEFIPQEKKNSGLNCGTQRRLDSNRIGRRNYSSPPPCHLSRQVPYDEISAVHQHSYHPSGSKPKSQQTSFQSSPCNKSPKSHGLQNQPWQKLRNEKHHIRVKKAQSLAEQTSDTAGLESSTRSESGTDLREHSPSESEKEVVGADPRGAKPKKATQFVYSYGRGPKVKGKLKCEWSNRTTPKPEDAGPESTKPVGVFHPDSSEASSRKGVLDGYGARRNEQRRYPQKRPPWEVEGARPRPGRNPPKQEGHRHTNAGHRNNMGPIPKDDLNERPAKSTCDSENLAVINKSSRRVDQEKCTVRRQDPQVVSPFSRGKQNHVLKNVETHTGSLIEQLTTEKYECMVCCELVRVTAPVWSCQSCYHVFHLNCIKKWARSPASQADGQSGWRCPACQNVSAHVPNTYTCFCGKVKNPEWSRNEIPHSCGEVCRKKQPGQDCPHSCNLLCHPGPCPPCPAFMTKTCECGRTRHTVRCGQAVSVHCSNPCENILNCGQHQCAELCHGGQCQPCQIILNQVCYCGSTSRDVLCGTDVGKSDGFGDFSCLKICGKDLKCGNHTCSQVCHPQPCQQCPRLPQLVRCCPCGQTPLSQLLELGSSSRKTCMDPVPSCGKVCGKPLPCGSLDFIHTCEKLCHEGDCGPCSRTSVISCRCSFRTKELPCTSLKSEDATFMCDKRCNKKRLCGRHKCNEICCVDKEHKCPLICGRKLRCGLHRCEEPCHRGNCQTCWQASFDELTCHCGASVIYPPVPCGTRPPECTQTCARVHECDHPVYHSCHSEEKCPPCTFLTQKWCMGKHEFRSNIPCHLVDISCGLPCSATLPCGMHKCQRLCHKGECLVDEPCKQPCTTPRADCGHPCMAPCHTSSPCPVTACKAKVELQCECGRRKEMVICSEASSTYQRIAAISMASKITDMQLGGSVEISKLITKKEVHQARLECDEECSALERKKRLAEAFHISEDSDPFNIRSSGSKFSDSLKEDARKDLKFVSDVEKEMETLVEAVNKGKNSKKSHSFPPMNRDHRRIIHDLAQVYGLESVSYDSEPKRNVVVTAIRGKSVCPPTTLTGVLEREMQARPPPPIPHHRHQSDKNPGSSNLQKITKEPIIDYFDVQD |  |  | 0.9482 | 0.3965 |
| WBP11 (protein, UniProt Q9Y2W2 1-641, looked up) WW domain-binding protein 11: MGRRSTSSTKSGKFMNPTDQARKEARKRELKKNKKQRMMVRAAVLKMKDPKQIIRDMEKLDEMEFNPVQQPQLNEKVLKDKRKKLRETFERILRLYEKENPDIYKELRKLEVEYEQKRAQLSQYFDAVKNAQHVEVESIPLPDMPHAPSNILIQDIPLPGAQPPSILKKTSAYGPPTRAVSILPLLGHGVPRLPPGRKPPGPPPGPPPPQVVQMYGRKVGFALDLPPRRRDEDMLYSPELAQRGHDDDVSSTSEDDGYPEDMDQDKHDDSTDDSDTDKSDGESDGDEFVHRDNGERDNNEEKKSGLSVRFADMPGKSRKKKKNMKELTPLQAMMLRMAGQEIPEEGREVEEFSEDDDEDDSDDSEAEKQSQKQHKEESHSDGTSTASSQQQAPPQSVPPSQIQAPPMPGPPPLGPPPAPPLRPPGPPTGLPPGPPPGAPPFLRPPGMPGLRGPLPRLLPPGPPPGRPPGPPPGPPPGLPPGPPPRGPPPRLPPPAPPGIPPPRPGMMRPPLVPPLGPAPPGLFPPAPLPNPGVLSAPPNLIQRPKADDTSAATIEKKATATISAKPQITNPKAEITRFVPTALRVRRENKGATAAPQRKSEDDSAVPLAKAAPKSGPSVPVSVQTKDDVYEAFMKEMEGLL |  |  | 1.895 | 0.3509 |
| FLOT1 (protein, UniProt O75955 1-427, looked up) Flotillin-1: MFFTCGPNEAMVVSGFCRSPPVMVAGGRVFVLPCIQQIQRISLNTLTLNVKSEKVYTRHGVPISVTGIAQVKIQGQNKEMLAAACQMFLGKTEAEIAHIALETLEGHQRAIMAHMTVEEIYKDRQKFSEQVFKVASSDLVNMGISVVSYTLKDIHDDQDYLHSLGKARTAQVQKDARIGEAEAKRDAGIREAKAKQEKVSAQYLSEIEMAKAQRDYELKKAAYDIEVNTRRAQADLAYQLQVAKTKQQIEEQRVQVQVVERAQQVAVQEQEIARREKELEARVRKPAEAERYKLERLAEAEKSQLIMQAEAEAASVRMRGEAEAFAIGARARAEAEQMAKKAEAFQLYQEAAQLDMLLEKLPQVAEEISGPLTSANKITLVSSGSGTMGAAKVTGEVLDILTRLPESVERLTGVSISQVNHKPLRTA |  |  | -0.5076 | 0.376 |
| HLTF (protein, UniProt Q14527 1-1009, looked up) Helicase-like transcription …: MSWMFKRDPVWKYLQTVQYGVHGNFPRLSYPTFFPRFEFQDVIPPDDFLTSDEEVDSVLFGSLRGHVVGLRYYTGVVNNNEMVALQRDPNNPYDKNAIKVNNVNGNQVGHLKKELAGALAYIMDNKLAQIEGVVPFGANNAFTMPLHMTFWGKEENRKAVSDQLKKHGFKLGPAPKTLGFNLESGWGSGRAGPSYSMPVHAAVQMTTEQLKTEFDKLFEDLKEDDKTHEMEPAEAIETPLLPHQKQALAWMVSRENSKELPPFWEQRNDLYYNTITNFSEKDRPENVHGGILADDMGLGKTLTAIAVILTNFHDGRPLPIERVKKNLLKKEYNVNDDSMKLGGNNTSEKADGLSKDASRCSEQPSISDIKEKSKFRMSELSSSRPKRRKTAVQYIESSDSEEIETSELPQKMKGKLKNVQSETKGRAKAGSSKVIEDVAFACALTSSVPTTKKKMLKKGACAVEGSKKTDVEERPRTTLIICPLSVLSNWIDQFGQHIKSDVHLNFYVYYGPDRIREPALLSKQDIVLTTYNILTHDYGTKGDSPLHSIRWLRVILDEGHAIRNPNAQQTKAVLDLESERRWVLTGTPIQNSLKDLWSLLSFLKLKPFIDREWWHRTIQRPVTMGDEGGLRRLQSLIKNITLRRTKTSKIKGKPVLELPERKVFIQHITLSDEERKIYQSVKNEGRATIGRYFNEGTVLAHYADVLGLLLRLRQICCHTYLLTNAVSSNGPSGNDTPEELRKKLIRKMKLILSSGSDEECAICLDSLTVPVITHCAHVFCKPCICQVIQNEQPHAKCPLCRNDIHEDNLLECPPEELARDSEKKSDMEWTSSSKINALMHALTDLRKKNPNIKSLVVSQFTTFLSLIEIPLKASGFVFTRLDGSMAQKKRVESIQCFQNTEAGSPTIMLLSLKAGGVGLNLSAASRVFLMDPAWNPAAEDQCFDRCHRLGQKQEVIITKFIVKDSVEENMLKIQNKKRELAAGAFGTKKPNADEMKQAKINEIRTLIDL |  |  | 1.079 | 0.3278 |
